*1 amine or outer side, *2 acyl side, *3 side chain or, on linkers, in order; H or OH if unused. Where a SMILES comes first, the peptide text is derived from it. Bridges are numbered along the chain shown (N, C = ends). Side-chain parts run from the residue outwards. [ ]: non-standard residue; d: D form. The star is where a group is joined. X1 = CC(C)(C)C(=O)CN1C(=O)[C@H](N*)CN(C2CCCCC2)c2ccccc21; DOTA = O=C(O)CN1CCN(CC(=O)O)CCN(CC(=O)*)CCN(CC(=O)O)CC1; 3Abz = Nc1cccc(C(=O)O)c1; CO = O=C([*:1])[*:2]
Assays:
SSTR2 = target: T1, SSTR2 (Rattus norvegicus, UniProt P30680); assay: Competitive cell-binding assay on AR42J cells with 125I-C1 as competitive ligand
T1 construct: host or cells: AR42J cells
T1 sequence (P30680 whole entry): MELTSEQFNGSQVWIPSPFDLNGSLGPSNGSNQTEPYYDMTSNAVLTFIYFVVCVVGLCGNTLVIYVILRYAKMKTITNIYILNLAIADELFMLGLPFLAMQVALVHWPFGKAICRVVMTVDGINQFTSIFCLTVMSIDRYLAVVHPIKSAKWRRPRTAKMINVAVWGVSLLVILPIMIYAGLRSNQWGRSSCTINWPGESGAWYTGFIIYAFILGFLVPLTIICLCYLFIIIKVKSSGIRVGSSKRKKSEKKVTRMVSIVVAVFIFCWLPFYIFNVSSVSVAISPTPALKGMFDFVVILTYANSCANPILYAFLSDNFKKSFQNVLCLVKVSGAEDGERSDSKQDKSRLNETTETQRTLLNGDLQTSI
Method: AR42J cells (ATCC) were maintained in RPMI-1640 medium (Gibco) supplemented with 15% fetal bovine serum (Gibco) and 1% penicillin-streptomycin (BI) at 37° C. in a humidified incubator with 5% CO2. The culture medium was replaced with fresh medium every 2-3 days. Experiments were performed with cells at 70-80% confluence.
Binding Affinity Tested by Using ^125I-Labeled Competitive Ligands.
The binding affinities of test compounds were determined by a competitive cell-binding assay using ^125I-C1 and ^125I-C3 as the competitive ligand. The suspended AR42J cells at a density of 1~3×10^6 cells/mL in binding buffer (RPMI-1640 medium supplemented with 0.25% bovine serum albumin) were transferred to a MultiScreen-DV Filter Plate (Millipore) with 100 μL per well except the blank group where the binding buffer was used instead. The cells were then incubated with ^125I-C1 and ^125I-C3 (0.02 μCi/well) in the presence of increasing concentrations (0-10000 nM) of test compounds at 37° C. for 1 h (n=3). The final volume in each well was maintained at 200 μL and insufficient volume was adjusted by the binding buffer. After the 1 h incubation, unbound ^125I-competitive ligands were removed by filtration using a Multiscreen vacuum manifold (Millipore) followed by rinses with the binding buffer (3 times). The filters were collected, and their radioactivity were individually measured by γ counter (2480 WIZARD2, PerkinElmer). The best-fit IC50value (inhibitory concentration when 50% of the bound ^125I-C1 and ^125l I-C3 on cells were displaced) of test compounds were calculated by fitting the data with nonlinear regression using GraphPad Prism 8.0.1.

in vivo = conditions: BALB/c nude, mouse, in vivo, iv, total radioactivity
Procedure, shortened: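 Tissue uptake given as % ID and % ID/g from γ counting of organs taken 4, 24 and 72 h after injection into BALB/c nude mice carrying subcutaneous AR42J xenografts (0.05-0.50 g). Tracers were ^177Lu-labelled at 95° C for 15 min in pH 4.5 NaOAc buffer and used neat or diluted in PBS containing 3 mg/mL ascorbate.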

With `C[C@@H](O)[C@H](NC(=O)[C@@H]1CSSC[C@H](NC(=O)[C@@H](Cc2ccccc2)NC(=O)CN2CCN(CC(=O)O)CCN(CC(=O)O)CCN(CC(=O)O)CC2)C(=O)N[C@@H](Cc2ccc(O)cc2)C(=O)N[C@H](Cc2c[nH]c3ccccc23)C(=O)N[C@@H](CCCCN)C(=O)N[C@@H]([C@@H](C)O)C(=O)N1)C(=O)O` [Compound C-1, DOTA-f[CYwKTC]T-OH, reference compound] the IC50 (SSTR2) was 2.81 nM.

Work on `C[C@@H](O)[C@H](NC(=O)[C@@H]1CSSC[C@H](NC(=O)[C@@H](Cc2ccccc2)NC(=O)COCCOCCNC(=O)[C@H](CCCCNC(=O)CC[C@H](NC(=O)CNC(=O)c2cccc(NC(=O)N[C@@H]3CN(C4CCCCC4)c4ccccc4N(CC(=O)C(C)(C)C)C3=O)c2)C(=O)O)NC(=O)COCCOCCNC(=O)CC[C@H](NC(=O)CC[C@H](NC(=O)CN2CCN(CC(=O)O)CCN(CC(=O)O)CCN(CC(=O)O)CC2)C(=O)O)C(=O)O)C(=O)N[C@@H](Cc2ccc(O)cc2)C(=O)N[C@H](Cc2c[nH]c3ccccc23)C(=O)N[C@@H](CCCCN)C(=O)N[C@@H]([C@@H](C)O)C(=O)N1)C(=O)O` [^177Lu-1-14, metal not drawn] yielded a tissue uptake at 4 h (in vivo; % ID/g Adrenal gland) of 3.55 %ID/g, a tissue uptake at 24 h (in vivo; % ID/g Adrenal gland) of 2.72 %ID/g and a tissue uptake at 72 h (in vivo; % ID/g Adrenal gland) of 1.44 %ID/g. The tissue uptake at 4 h (in vivo; % ID/g Blood) was 1.32 %ID/g, the tissue uptake at 24 h (in vivo; % ID/g Blood) was 0.09 %ID/g and the tissue uptake at 72 h (in vivo; % ID/g Blood) was 0.02 %ID/g. The tissue uptake at 4 h (in vivo; % ID/g Femur) was 0.49 %ID/g, the tissue uptake at 24 h (in vivo; % ID/g Femur) was 0.4 %ID/g and the tissue uptake at 72 h (in vivo; % ID/g Femur) was 0.31 %ID/g. It also gave a tissue uptake at 4 h (in vivo; % ID/g Heart) of 0.8 %ID/g, a tissue uptake at 24 h (in vivo; % ID/g Heart) of 0.17 %ID/g and a tissue uptake at 72 h (in vivo; % ID/g Heart) of 0.19 %ID/g. For the same compound, the tissue uptake at 4 h (in vivo; % ID/g Intestine) was 0.6 %ID/g, the tissue uptake at 24 h (in vivo; % ID/g Intestine) was 1.25 %ID/g and the tissue uptake at 72 h (in vivo; % ID/g Intestine) was 0.37 %ID/g. For the same compound, the tissue uptake at 4 h (in vivo; % ID/g Kidney) was 48.2 %ID/g, the tissue uptake at 24 h (in vivo; % ID/g Kidney) was 68.6 %ID/g and the tissue uptake at 72 h (in vivo; % ID/g Kidney) was 24.3 %ID/g. It also gave a tissue uptake at 4 h (in vivo; % ID/g Liver) of 3.31 %ID/g, a tissue uptake at 24 h (in vivo; % ID/g Liver) of 2.24 %ID/g and a tissue uptake at 72 h (in vivo; % ID/g Liver) of 1.28 %ID/g. For the same compound, the tissue uptake at 4 h (in vivo; % ID/g Lung) was 1.32 %ID/g, the tissue uptake at 24 h (in vivo; % ID/g Lung) was 0.72 %ID/g and the tissue uptake at 72 h (in vivo; % ID/g Lung) was 0.95 %ID/g. It also gave a tissue uptake at 4 h (in vivo; % ID/g Muscle) of 0.17 %ID/g, a tissue uptake at 24 h (in vivo; % ID/g Muscle) of 0.17 %ID/g and a tissue uptake at 72 h (in vivo; % ID/g Muscle) of 0.11 %ID/g. It also gave a tissue uptake at 4 h (in vivo; % ID/g Pancreas) of 2.11 %ID/g, a tissue uptake at 24 h (in vivo; % ID/g Pancreas) of 3.37 %ID/g and a tissue uptake at 72 h (in vivo; % ID/g Pancreas) of 3.14 %ID/g. For the same compound, the tissue uptake at 4 h (in vivo; % ID/g Spleen) was 0.64 %ID/g, the tissue uptake at 24 h (in vivo; % ID/g Spleen) was 0.56 %ID/g and the tissue uptake at 72 h (in vivo; % ID/g Spleen) was 2.17 %ID/g. It also gave a tissue uptake at 4 h (in vivo; % ID/g Stomach) of 3.68 %ID/g, a tissue uptake at 24 h (in vivo; % ID/g Stomach) of 2.25 %ID/g and a tissue uptake at 72 h (in vivo; % ID/g Stomach) of 2.99 %ID/g. For the same compound, the tissue uptake at 4 h (in vivo; % ID/g Tumor) was 30.9 %ID/g, the tissue uptake at 24 h (in vivo; % ID/g Tumor) was 14.9 %ID/g and the tissue uptake at 72 h (in vivo; % ID/g Tumor) was 18 %ID/g.

For `C[C@@H](O)[C@H](NC(=O)[C@@H]1CSSC[C@H](NC(=O)[C@@H](Cc2ccccc2)NC(=O)CCOCCOCCOCCNC(=O)[C@H](CCCCNC(=O)c2cccc(NC(=O)N[C@@H]3CN(C4CCCCC4)c4ccccc4N(CC(=O)C(C)(C)C)C3=O)c2)NC(=O)CN2CCN(CC(=O)O)CCN(CC(=O)O)CCN(CC(=O)O)CC2)C(=O)N[C@@H](Cc2ccc(O)cc2)C(=O)N[C@H](Cc2c[nH]c3ccccc23)C(=O)N[C@@H](CCCCN)C(=O)N[C@@H]([C@@H](C)O)C(=O)N1)C(=O)O` [Compound I-38, DOTA-K(Z360)-PEG3-f[CYwKTC]T-OH], the tissue to tissue ratio at 24 h (in vivo; T/K Tumor/Kidney ratio) was 1.8, the tissue to tissue ratio at 24 h (in vivo; T/L Tumor/Liver ratio) was 6.1 and the tissue to tissue ratio at 24 h (in vivo; T/P Tumor/Pancreas ratio) was 18. For the same compound, the tissue to tissue ratio at 24 h (in vivo; T/Sp Tumor/Spleen ratio) was 72, the tissue to tissue ratio at 24 h (in vivo; T/St Tumor/Stomach ratio) was 4.2 and the tissue uptake at 24 h (in vivo; uptake Kidney) was 7.9 %ID/g. The tissue uptake at 24 h (in vivo; uptake Liver) was 2.3 %ID/g, the tissue uptake at 24 h (in vivo; uptake Pancreas) was 0.8 %ID/g and the tissue uptake at 24 h (in vivo; uptake Spleen) was 0.2 %ID/g. The tissue uptake at 24 h (in vivo; uptake Stomach) was 3.4 %ID/g and the tissue uptake at 24 h (in vivo; uptake Tumor) was 14.3 %ID/g.

In the case of `C[C@@H](O)[C@H](NC(=O)[C@@H]1CSSC[C@H](NC(=O)[C@@H](Cc2ccccc2)NC(=O)CNC(=O)[C@H]2CCCN2C(=O)CNC(=O)[C@H]2CCCN2C(=O)CNC(=O)[C@H](CCCCNC(=O)c2cccc(NC(=O)N[C@@H]3CN(C4CCCCC4)c4ccccc4N(CC(=O)C(C)(C)C)C3=O)c2)NC(=O)CN2CCN(CC(=O)O)CCN(CC(=O)O)CCN(CC(=O)O)CC2)C(=O)N[C@@H](Cc2ccc(O)cc2)C(=O)N[C@H](Cc2c[nH]c3ccccc23)C(=O)N[C@@H](CCCCN)C(=O)N[C@@H]([C@@H](C)O)C(=O)N1)C(=O)O` [Compound I-55, DOTA-K(Z360)-G-p-G-p-G-f[CYwKTC]T-OH] ({DOTA}-K([3Abz-CO-X1])G[dP]G[dP]G[dF]CY[dW]KTCT-OH; disulfide 8-13), the tissue to tissue ratio at 24 h (in vivo; T/K Tumor/Kidney ratio) is reported as 1.1, the tissue to tissue ratio at 24 h (in vivo; T/L Tumor/Liver ratio) is reported as 2.5 and the tissue to tissue ratio at 24 h (in vivo; T/P Tumor/Pancreas ratio) is reported as 14. It also gave a tissue to tissue ratio at 24 h (in vivo; T/Sp Tumor/Spleen ratio) of 34, a tissue to tissue ratio at 24 h (in vivo; T/St Tumor/Stomach ratio) of 7.3 and a tissue uptake at 24 h (in vivo; uptake Kidney) of 20.8 %ID/g. The tissue uptake at 24 h (in vivo; uptake Liver) was 9.21 %ID/g, the tissue uptake at 24 h (in vivo; uptake Pancreas) was 1.66 %ID/g and the tissue uptake at 24 h (in vivo; uptake Spleen) was 0.67 %ID/g. The tissue uptake at 24 h (in vivo; uptake Stomach) was 3.13 %ID/g and the tissue uptake at 24 h (in vivo; uptake Tumor) was 23 %ID/g.

From patent US20260248972A1, “DUAL RECEPTOR TARGETING RADIOLIGANDS AND USES THEREOF RELATED APPLICATIONS” (priority 2022, published 2026)
